# Patent US20250222146A1, “Radiopharmaceuticals Targeting Somatostatin Receptor 2 and Uses Thereof” (RayzeBio, Inc., priority 2023, published 2025)
# Where two headings read alike, the source gives them in different places. Numbered stars: 1 amine (or outer) side, 2 acyl side, 3 side chain; on linkers, the order of the positions; unused ones are H or OH. Square brackets hold non-standard residues; d marks the D form. Peptide text beside a SMILES is read from it. * marks the point of attachment. DOTA(Lu)NH(CH2)6NHCOCH2 = O=C(CN1CCN2CCN3CCN(CC1)CC(=O)[O][Lu]([O]C(=O)C2)[O]C(=O)C3)NCCCCCCNC(=O)C*; Ala(piperidin-4-yl) = O=C([C@H](CC1CCN([*:3])CC1)N[*:1])[*:2]; dTrp(βS-Me) = C[C@@H](c1c[nH]c2ccccc12)[C@@H](N)C(=O)O; Ala(piperazin-1-yl) = N[C@@H](CN1CCNCC1)C(=O)O; X2 = O=C([C@H](CCC1CNC1)N[*:1])[*:2]; Lys(Me2) = CN(C)CCCC[C@H](N)C(=O)O; Lys(Me) = CNCCCC[C@H](N)C(=O)O; NMehCys = CN[C@@H](CCS)C(=O)O; NMeK = CN[C@@H](CCCCN)C(=O)O; X1 = C1NCC1*
# B1: RB-0002676 (peptide)
# peptide: XYWKVF
# modifications: cyclo[NMe-Hcy(COCH2-Dah-DOTA-Lu);Tyr;D-Trp;Lys;Val;Phe]
# B2: RB-0003453 (peptide)
# peptide: XYWKTF
# modifications: cyclo[NMe-Hcy(COCH2-Dah-DOTA-Lu);Tyr;D-Trp;NMe-Lys;Thr;Phe]
# B3: RB-0006176 (peptide)
# peptide: cyclo([NMeK]Y[dTrp(βS-Me)][Ala(piperazin-1-yl)]TF)
# modifications: not fully specified (residue 1); printed as cyclo[NMe-Lys(DOTA-Lu),Tyr,(S-βMe)D-Trp,PipzaA,Thr,Phe]; also: Lu chelated in DOTA
# Legend:
# [1] = biological target: SSTR2 (Homo sapiens, UniProt P30874); experiment: SSTR binding affinity by radioligand binding competition assay ([125I]-Tyr11-Somatostatin, membrane extracts); conditions: radioligand competition, [125I]-Tyr11-Somatostatin 0.1 nM, membrane extracts, Ki from IC50 by Cheng Prusoff
# [2] = Peptide conjugate biodistribution measured by tissue PK (ICP-MS, % ID/g in kidney tissue at 2 h); type: in vivo; conditions: 2 h time point, mouse
# Description: Macrocyclic peptides and conjugates described herein were tested for tissue distribution by measuring concentrations in tissues by MS using in vivo animal models. Peptide metal chelates were dosed to animals and tissues were collected at specific time points based off the peptide PK profile. The samples were then analyzed by MS and the results reported as % ID/g (% injected dose/gram). Radiopharmaceutical conjugates of the present disclosure have improved tissue distribution for radiopharmaceutical therapeutics.
# Peptide metal chelate doses were suspended in phosphate-buffered saline (PBS) containing 0.1% Tween 80. An injection volume of 100 μL per mouse was used, and blood and tissue samples were collected, weighed, and stored frozen at-80° C. until analysis. Tissue samples were digested with concentrated nitric acid in a microwave digestion apparatus. The sample digest was diluted with internal standard and analyzed using inductively coupled plasma mass spectrometry (ICP-MS). ICP-MS is an elemental analysis technique used to measure elements by using argon plasma to convert the sample into ions that are then measured using the mass spectrometer. Calibration standards were used for quantification of element(s) of interest by constructing a multipoint standard curve covering the range of analyte concentrations anticipated in the samples (typical range is 500 ppt to 0.1 ppt). A single quadrupole instrument (iCAP RQ, Thermo Fisher) ICP-MS was coupled with a Teledyne CETAC autosampler and used for the sample analysis.
# The % ID/g of conjugate in kidney tissue at the 2-hour time point (2 h) was quantified for various conjugates, and the results are shown in Table 10. Lower kidney tissue % ID/g values indicate lower distribution to the kidney after administration of the conjugate.
# [3] = biological target: T1, somatostatin receptor type 2 (SSTR2) (UniProt P30874 1-369, limits assumed); experiment: radioligand competition; Ki bin per legend
# T1 construct: also called SSTR protein
# T1 sequence (P30874 whole entry): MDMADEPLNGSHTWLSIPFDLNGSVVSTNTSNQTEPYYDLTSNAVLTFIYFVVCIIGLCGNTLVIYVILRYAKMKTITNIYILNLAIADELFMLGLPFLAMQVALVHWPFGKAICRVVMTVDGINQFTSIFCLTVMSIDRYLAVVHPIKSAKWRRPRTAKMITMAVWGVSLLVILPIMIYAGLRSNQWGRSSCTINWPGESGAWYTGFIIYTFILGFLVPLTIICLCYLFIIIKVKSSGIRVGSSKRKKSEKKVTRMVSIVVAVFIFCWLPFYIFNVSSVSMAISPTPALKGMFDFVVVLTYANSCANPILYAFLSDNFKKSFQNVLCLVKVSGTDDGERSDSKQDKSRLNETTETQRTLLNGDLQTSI
# SSTR2, sequence (P30874 whole entry): as above
Molecule,Ki ([1]; read-out: SSTR2 Ki) [nM],tissue uptake at 2 h [2] [%ID/g],Ki ([1]; SSTR2 Ki) [nM],Ki [3] [nM]
C[C@@H](O)[C@@H]1NC(=O)[C@H](CCCCN)NC(=O)[C@H](Cc2c[nH]c3ccccc23)NC(=O)[C@H](Cc2ccc(O)cc2)NC(=O)[C@H](CCSCC(=O)NCCOCCOCCOCCNC(=O)CN2CCN3CCN4CCN(CC2)CC(=O)[O][Lu]([O]C(=O)C3)[O]C(=O)C4)N(C)C(=O)[C@H](Cc2ccccc2)NC1=O [RB-0005502],< 1,9.4,–,–
C[C@@H](O)[C@@H]1NC(=O)[C@H](CC2CCNCC2)NC(=O)[C@@H]([C@@H](C)c2c[nH]c3ccccc23)NC(=O)[C@H](Cc2ccc(O)cc2)NC(=O)[C@H](CCSCC(=O)NCCCCCCNC(=O)CN2CCN3CCN4CCN(CC2)CC(=O)[O][Lu]([O]C(=O)C3)[O]C(=O)C4)N(C)C(=O)[C@H](Cc2ccccc2)NC1=O [RB-0005760] (cyclo(F[NMehCys](DOTA(Lu)NH(CH2)6NHCOCH2)Y[dTrp(βS-Me)][Ala(piperidin-4-yl)]T)),< 1,2.7,–,–
CNCCCC[C@@H]1NC(=O)[C@@H](Cc2c[nH]c3ccccc23)NC(=O)[C@H](Cc2ccc(O)cc2)NC(=O)[C@H](CCSCC(=O)NCCCCCCNC(=O)CN2CCN3CCN4CCN(CC2)CC(=O)[O][Lu]([O]C(=O)C3)[O]C(=O)C4)N(C)C(=O)[C@H](Cc2ccccc2)NC(=O)[C@H]([C@@H](C)O)NC1=O [RB-0005799] (cyclo(F[NMehCys](DOTA(Lu)NH(CH2)6NHCOCH2)Y[dW][Lys(Me)]T)),< 1,2.3,–,–
C[C@@H](O)[C@@H]1NC(=O)[C@H](CCCCN(C)C)NC(=O)[C@@H](Cc2c[nH]c3ccccc23)NC(=O)[C@H](Cc2ccc(O)cc2)NC(=O)[C@H](CCSCC(=O)NCCCCCCNC(=O)CN2CCN3CCN4CCN(CC2)CC(=O)[O][Lu]([O]C(=O)C3)[O]C(=O)C4)N(C)C(=O)[C@H](Cc2ccccc2)NC1=O [RB-0005801] (cyclo(F[NMehCys](DOTA(Lu)NH(CH2)6NHCOCH2)Y[dW][Lys(Me2)]T)),1 to 3.33,2,–,–
C[C@@H](O)[C@@H]1NC(=O)[C@H](CN2CCNCC2)NC(=O)[C@@H](Cc2c[nH]c3ccccc23)NC(=O)[C@H](Cc2ccc(O)cc2)NC(=O)[C@H](CCSCC(=O)NCCCCCCNC(=O)CN2CCN3CCN4CCN(CC2)CC(=O)[O][Lu]([O]C(=O)C3)[O]C(=O)C4)N(C)C(=O)[C@H](Cc2ccccc2)NC1=O [RB-0005805] (cyclo(F[NMehCys](DOTA(Lu)NH(CH2)6NHCOCH2)Y[dW][Ala(piperazin-1-yl)]T)),–,2.5,< 1,–
C[C@@H](O)[C@@H]1NC(=O)[C@H](CCC2CNC2)NC(=O)[C@@H](Cc2c[nH]c3ccccc23)NC(=O)[C@H](Cc2ccc(O)cc2)NC(=O)[C@H](CCSCC(=O)NCCCCCCNC(=O)CN2CCN3CCN4CCN(CC2)CC(=O)[O][Lu]([O]C(=O)C3)[O]C(=O)C4)N(C)C(=O)[C@H](Cc2ccccc2)NC1=O [RB-0005897] (cyclo(F[NMehCys](DOTA(Lu)NH(CH2)6NHCOCH2)Y[dW][X2]T)),< 1,2.5,–,–
C[C@@H](O)[C@@H]1NC(=O)[C@H](COC2CNC2)NC(=O)[C@@H](Cc2c[nH]c3ccccc23)NC(=O)[C@H](Cc2ccc(O)cc2)NC(=O)[C@H](CCSCC(=O)NCCCCCCNC(=O)CN2CCN3CCN4CCN(CC2)CC(=O)[O][Lu]([O]C(=O)C3)[O]C(=O)C4)N(C)C(=O)[C@H](Cc2ccccc2)NC1=O [RB-0006013] (cyclo(F[NMehCys](DOTA(Lu)NH(CH2)6NHCOCH2)Y[dW]S(X1)T)),1 to 3.33,3,–,–
C[C@@H](O)[C@@H]1NC(=O)[C@H](CN2CCNCC2)NC(=O)[C@@H]([C@@H](C)c2c[nH]c3ccccc23)NC(=O)[C@H](Cc2ccc(O)cc2)NC(=O)[C@H](CCSCC(=O)NCCCCCCNC(=O)CN2CCN3CCN4CCN(CC2)CC(=O)[O][Lu]([O]C(=O)C3)[O]C(=O)C4)N(C)C(=O)[C@H](Cc2ccccc2)NC1=O [RB-0006072] (cyclo(F[NMehCys](DOTA(Lu)NH(CH2)6NHCOCH2)Y[dTrp(βS-Me)][Ala(piperazin-1-yl)]T)),< 1,2.7,–,–
B1,–,–,–,< 1
B2,–,–,–,< 1
B3,–,–,–,< 1
